In US20250346638:

System: TNF ATF 3 (synthetic construct)
Experiment: cell_activity
Settings: TNF ELISA about 100 pg/mL with CD3/CD28 Dynabeads vs shock; about 3-fold with stimulation cocktail and BFA (FIG. 15)

Chain of TNF ATF 3 (synthetic construct) (chain, as listed by the source): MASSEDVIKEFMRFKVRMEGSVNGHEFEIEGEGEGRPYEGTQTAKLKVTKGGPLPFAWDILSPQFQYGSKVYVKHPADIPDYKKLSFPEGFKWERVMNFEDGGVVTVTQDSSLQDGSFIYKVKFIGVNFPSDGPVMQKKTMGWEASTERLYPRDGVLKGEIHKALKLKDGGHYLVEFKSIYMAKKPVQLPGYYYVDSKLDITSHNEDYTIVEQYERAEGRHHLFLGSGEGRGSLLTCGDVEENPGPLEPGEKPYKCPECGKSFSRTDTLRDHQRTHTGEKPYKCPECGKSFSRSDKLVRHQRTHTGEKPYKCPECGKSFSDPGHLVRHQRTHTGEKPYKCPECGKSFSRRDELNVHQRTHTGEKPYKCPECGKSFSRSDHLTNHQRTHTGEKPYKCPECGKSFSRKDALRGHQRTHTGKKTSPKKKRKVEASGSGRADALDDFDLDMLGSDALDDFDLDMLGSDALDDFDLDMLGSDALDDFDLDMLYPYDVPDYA

In the case of TNF promoter ATF 3 target, the activity is reported as 5 fold.
